Results reported in publication PMC11234463, “Structural Evolution of Bacterial Polyphosphate Degradation Enzyme for Phosphorus Cycling” (Advanced Science, 2024).

What was measured:
DrPPX = target: T1, DrPPX (Deinococcus radiodurans, UniProt Q9RYW9); assay: X-ray crystal structure of complex; settings: crystals grown in 1.26 M NaH2PO4 and 0.14 M K2HPO4, pH 5.6; four phosphate ions in the polyP-binding area
T1 construct: gene DR_A0185; full length, N-terminal His6 tag (pET-28a), expressed in E. coli BL21 Rosetta pLysS (DE3); asymmetric homodimer; about 515 residues (C-terminal deletion printed as 320-515)

[1] = target: AbPPX, exopolyphosphatase (PPX) from Acinetobacter baumannii (Acinetobacter baumannii 15827); assay: crystal structure; sitting drop vapor diffusion at 20 °C, protein 1-5 mg/mL; molecular replacement with E. coli PPX (PDB 1U6Z); dimers seen in the crystals
[2] = target: DrPPX, exopolyphosphatase (PPX) from Deinococcus radiodurans, wild type (Deinococcus radiodurans R1); assay: SEC; gel filtration chromatography; elution peak of DrPPX (+7AA) compared with that of wild-type DrPPX
[3] = target: DrPPX, exopolyphosphatase (PPX) from Deinococcus radiodurans, wild type (Deinococcus radiodurans R1); assay: crystal structure; sitting drop vapor diffusion at 20 °C, protein 1-5 mg/mL; molecular replacement with E. coli PPX (PDB 1U6Z); dimers seen in the crystals
[4] = target: KpPPX, exopolyphosphatase (PPX) from Klebsiella pneumoniae (Klebsiella pneumoniae 1158); assay: as above

T1 sequence (Q9RYW9 entry or part of it): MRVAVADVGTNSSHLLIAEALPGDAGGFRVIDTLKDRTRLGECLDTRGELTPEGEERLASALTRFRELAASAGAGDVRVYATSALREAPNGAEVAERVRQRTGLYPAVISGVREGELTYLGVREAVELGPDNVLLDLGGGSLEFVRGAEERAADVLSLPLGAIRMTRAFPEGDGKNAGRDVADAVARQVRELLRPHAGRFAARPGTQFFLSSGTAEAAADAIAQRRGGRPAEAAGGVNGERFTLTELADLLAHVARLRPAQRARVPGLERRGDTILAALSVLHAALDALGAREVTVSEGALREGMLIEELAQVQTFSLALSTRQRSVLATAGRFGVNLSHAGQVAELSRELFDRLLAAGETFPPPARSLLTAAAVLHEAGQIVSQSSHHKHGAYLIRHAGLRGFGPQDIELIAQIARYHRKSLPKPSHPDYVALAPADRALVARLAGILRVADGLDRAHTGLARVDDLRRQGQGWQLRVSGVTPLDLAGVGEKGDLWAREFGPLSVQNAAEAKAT

With `O=P(O)(O)O` [Pi, phosphate] as the compound, how does the “X-ray crystal structure of complex” value (DrPPX) read?
The value was “four phosphate ions were located in the polyP‐binding area”.

Which stoichiometry N [1] does the source give for “AbPPX, exopolyphosphatase (PPX) from Acinetobacter baumannii (enzyme)” here?
Its stoichiometry N is 2.

What does the source list for “DrPPX, exopolyphosphatase (PPX) from Deinococcus radiodurans, wild type (enzyme)”?
stoichiometry N [2]: 2; stoichiometry N [3]: 2

Which stoichiometry N [4] does the source give for “KpPPX, exopolyphosphatase (PPX) from Klebsiella pneumoniae (enzyme)” here?
Its stoichiometry N is 2.
